B1: Peptide 137 (peptide)
peptide: H[Aib]QGTFTSDVSK[αMeF]LDSK([γGlu-γGlu-AEEA-AEEA-γGlu-γGlu-C18 diacid])RAQDFVRWLLEG[Aib]-OH
modifications: N-terminus assumed
SMILES: CC(C)C[C@H](NC(=O)[C@H](CC(C)C)NC(=O)[C@H](Cc1c[nH]c2ccccc12)NC(=O)[C@H](CCCNC(=N)N)NC(=O)[C@@H](NC(=O)[C@H](Cc1ccccc1)NC(=O)[C@H](CC(=O)O)NC(=O)[C@H](CCC(N)=O)NC(=O)[C@H](C)NC(=O)[C@H](CCCNC(=N)N)NC(=O)[C@H](CCCCNC(=O)CC[C@H](NC(=O)CC[C@H](NC(=O)COCCOCCNC(=O)COCCOCCNC(=O)CC[C@H](NC(=O)CC[C@H](NC(=O)CCCCCCCCCCCCCCCCC(=O)O)C(=O)O)C(=O)O)C(=O)O)C(=O)O)NC(=O)[C@H](CO)NC(=O)[C@H](CC(=O)O)NC(=O)[C@H](CC(C)C)NC(=O)[C@](C)(Cc1ccccc1)NC(=O)[C@H](CCCCN)NC(=O)[C@H](CO)NC(=O)[C@@H](NC(=O)[C@H](CC(=O)O)NC(=O)[C@H](CO)NC(=O)[C@@H](NC(=O)[C@H](Cc1ccccc1)NC(=O)[C@@H](NC(=O)CNC(=O)[C@H](CCC(N)=O)NC(=O)C(C)(C)NC(=O)[C@@H](N)Cc1c[nH]cn1)[C@@H](C)O)[C@@H](C)O)C(C)C)C(C)C)C(=O)N[C@@H](CCC(=O)O)C(=O)NCC(=O)NC(C)(C)C(=O)O
B2: Peptide 142 (peptide)
peptide: H[Aib]QGTFTSDVSK[αMeF]LDSK([AEEA-AEEA-γGlu-C18 diacid])RARDFVAWLLE[Aib]G-OH
modifications: N-terminus assumed
SMILES: CC(C)C[C@H](NC(=O)[C@H](Cc1c[nH]c2ccccc12)NC(=O)[C@H](C)NC(=O)[C@@H](NC(=O)[C@H](Cc1ccccc1)NC(=O)[C@H](CC(=O)O)NC(=O)[C@H](CCCNC(=N)N)NC(=O)[C@H](C)NC(=O)[C@H](CCCNC(=N)N)NC(=O)[C@H](CCCCNC(=O)COCCOCCNC(=O)COCCOCCNC(=O)CC[C@H](NC(=O)CCCCCCCCCCCCCCCCC(=O)O)C(=O)O)NC(=O)[C@H](CO)NC(=O)[C@H](CC(=O)O)NC(=O)[C@H](CC(C)C)NC(=O)[C@](C)(Cc1ccccc1)NC(=O)[C@H](CCCCN)NC(=O)[C@H](CO)NC(=O)[C@@H](NC(=O)[C@H](CC(=O)O)NC(=O)[C@H](CO)NC(=O)[C@@H](NC(=O)[C@H](Cc1ccccc1)NC(=O)[C@@H](NC(=O)CNC(=O)[C@H](CCC(N)=O)NC(=O)C(C)(C)NC(=O)[C@@H](N)Cc1c[nH]cn1)[C@@H](C)O)[C@@H](C)O)C(C)C)C(C)C)C(=O)N[C@@H](CC(C)C)C(=O)N[C@@H](CCC(=O)O)C(=O)NC(C)(C)C(=O)NCC(=O)O
B3: Peptide 517 (peptide)
peptide: H[Aib]QGTFTSDVSK[αMeF]LEAK([AEEA-AEEA-γGlu-γGlu-C18 diacid])AAREFIAWLLET-NH2
modifications: N-terminus assumed
SMILES: CC[C@H](C)[C@H](NC(=O)[C@H](Cc1ccccc1)NC(=O)[C@H](CCC(=O)O)NC(=O)[C@H](CCCNC(=N)N)NC(=O)[C@H](C)NC(=O)[C@H](C)NC(=O)[C@H](CCCCNC(=O)COCCOCCNC(=O)COCCOCCNC(=O)CC[C@H](NC(=O)CC[C@H](NC(=O)CCCCCCCCCCCCCCCCC(=O)O)C(=O)O)C(=O)O)NC(=O)[C@H](C)NC(=O)[C@H](CCC(=O)O)NC(=O)[C@H](CC(C)C)NC(=O)[C@](C)(Cc1ccccc1)NC(=O)[C@H](CCCCN)NC(=O)[C@H](CO)NC(=O)[C@@H](NC(=O)[C@H](CC(=O)O)NC(=O)[C@H](CO)NC(=O)[C@@H](NC(=O)[C@H](Cc1ccccc1)NC(=O)[C@@H](NC(=O)CNC(=O)[C@H](CCC(N)=O)NC(=O)C(C)(C)NC(=O)[C@@H](N)Cc1c[nH]cn1)[C@@H](C)O)[C@@H](C)O)C(C)C)C(=O)N[C@@H](C)C(=O)N[C@@H](Cc1c[nH]c2ccccc12)C(=O)N[C@@H](CC(C)C)C(=O)N[C@@H](CC(C)C)C(=O)N[C@@H](CCC(=O)O)C(=O)N[C@H](C(N)=O)[C@@H](C)O
B4: Peptide 136 (peptide)
peptide: H[Aib]QGTFTSDVSK[αMeF]LDSK([γGlu-γGlu-AEEA-AEEA-γGlu-γGlu-C18 diacid])RARDFVRWLLE[Aib]G-OH
modifications: N-terminus assumed
SMILES: CC(C)C[C@H](NC(=O)[C@H](Cc1c[nH]c2ccccc12)NC(=O)[C@H](CCCNC(=N)N)NC(=O)[C@@H](NC(=O)[C@H](Cc1ccccc1)NC(=O)[C@H](CC(=O)O)NC(=O)[C@H](CCCNC(=N)N)NC(=O)[C@H](C)NC(=O)[C@H](CCCNC(=N)N)NC(=O)[C@H](CCCCNC(=O)CC[C@H](NC(=O)CC[C@H](NC(=O)COCCOCCNC(=O)COCCOCCNC(=O)CC[C@H](NC(=O)CC[C@H](NC(=O)CCCCCCCCCCCCCCCCC(=O)O)C(=O)O)C(=O)O)C(=O)O)C(=O)O)NC(=O)[C@H](CO)NC(=O)[C@H](CC(=O)O)NC(=O)[C@H](CC(C)C)NC(=O)[C@](C)(Cc1ccccc1)NC(=O)[C@H](CCCCN)NC(=O)[C@H](CO)NC(=O)[C@@H](NC(=O)[C@H](CC(=O)O)NC(=O)[C@H](CO)NC(=O)[C@@H](NC(=O)[C@H](Cc1ccccc1)NC(=O)[C@@H](NC(=O)CNC(=O)[C@H](CCC(N)=O)NC(=O)C(C)(C)NC(=O)[C@@H](N)Cc1c[nH]cn1)[C@@H](C)O)[C@@H](C)O)C(C)C)C(C)C)C(=O)N[C@@H](CC(C)C)C(=O)N[C@@H](CCC(=O)O)C(=O)NC(C)(C)C(=O)NCC(=O)O
B5: Peptide 143 (peptide)
peptide: H[Aib]QGTFTSDVSK[αMeF]LDSK([AEEA-AEEA-γGlu-C18 diacid])RARDFVQWLLE[Aib]G-OH
modifications: N-terminus assumed
SMILES: CC(C)C[C@H](NC(=O)[C@H](Cc1c[nH]c2ccccc12)NC(=O)[C@H](CCC(N)=O)NC(=O)[C@@H](NC(=O)[C@H](Cc1ccccc1)NC(=O)[C@H](CC(=O)O)NC(=O)[C@H](CCCNC(=N)N)NC(=O)[C@H](C)NC(=O)[C@H](CCCNC(=N)N)NC(=O)[C@H](CCCCNC(=O)COCCOCCNC(=O)COCCOCCNC(=O)CC[C@H](NC(=O)CCCCCCCCCCCCCCCCC(=O)O)C(=O)O)NC(=O)[C@H](CO)NC(=O)[C@H](CC(=O)O)NC(=O)[C@H](CC(C)C)NC(=O)[C@](C)(Cc1ccccc1)NC(=O)[C@H](CCCCN)NC(=O)[C@H](CO)NC(=O)[C@@H](NC(=O)[C@H](CC(=O)O)NC(=O)[C@H](CO)NC(=O)[C@@H](NC(=O)[C@H](Cc1ccccc1)NC(=O)[C@@H](NC(=O)CNC(=O)[C@H](CCC(N)=O)NC(=O)C(C)(C)NC(=O)[C@@H](N)Cc1c[nH]cn1)[C@@H](C)O)[C@@H](C)O)C(C)C)C(C)C)C(=O)N[C@@H](CC(C)C)C(=O)N[C@@H](CCC(=O)O)C(=O)NC(C)(C)C(=O)NCC(=O)O
B6: Peptide 141 (peptide)
peptide: H[Aib]QGTFTSDVSK[αMeF]LDSK([AEEA-AEEA-γGlu-C18 diacid])RAQDFVAWLLE[Aib]G-OH
modifications: N-terminus assumed
SMILES: CC(C)C[C@H](NC(=O)[C@H](Cc1c[nH]c2ccccc12)NC(=O)[C@H](C)NC(=O)[C@@H](NC(=O)[C@H](Cc1ccccc1)NC(=O)[C@H](CC(=O)O)NC(=O)[C@H](CCC(N)=O)NC(=O)[C@H](C)NC(=O)[C@H](CCCNC(=N)N)NC(=O)[C@H](CCCCNC(=O)COCCOCCNC(=O)COCCOCCNC(=O)CC[C@H](NC(=O)CCCCCCCCCCCCCCCCC(=O)O)C(=O)O)NC(=O)[C@H](CO)NC(=O)[C@H](CC(=O)O)NC(=O)[C@H](CC(C)C)NC(=O)[C@](C)(Cc1ccccc1)NC(=O)[C@H](CCCCN)NC(=O)[C@H](CO)NC(=O)[C@@H](NC(=O)[C@H](CC(=O)O)NC(=O)[C@H](CO)NC(=O)[C@@H](NC(=O)[C@H](Cc1ccccc1)NC(=O)[C@@H](NC(=O)CNC(=O)[C@H](CCC(N)=O)NC(=O)C(C)(C)NC(=O)[C@@H](N)Cc1c[nH]cn1)[C@@H](C)O)[C@@H](C)O)C(C)C)C(C)C)C(=O)N[C@@H](CC(C)C)C(=O)N[C@@H](CCC(=O)O)C(=O)NC(C)(C)C(=O)NCC(=O)O
B7: Peptide 138 (peptide)
peptide: H[Aib]QGTFTSDVSK[αMeF]LDSK([γGlu-γGlu-AEEA-AEEA-γGlu-γGlu-C18 diacid])RAQDFVRWLLE[Aib]G-OH
modifications: N-terminus assumed
SMILES: CC(C)C[C@H](NC(=O)[C@H](Cc1c[nH]c2ccccc12)NC(=O)[C@H](CCCNC(=N)N)NC(=O)[C@@H](NC(=O)[C@H](Cc1ccccc1)NC(=O)[C@H](CC(=O)O)NC(=O)[C@H](CCC(N)=O)NC(=O)[C@H](C)NC(=O)[C@H](CCCNC(=N)N)NC(=O)[C@H](CCCCNC(=O)CC[C@H](NC(=O)CC[C@H](NC(=O)COCCOCCNC(=O)COCCOCCNC(=O)CC[C@H](NC(=O)CC[C@H](NC(=O)CCCCCCCCCCCCCCCCC(=O)O)C(=O)O)C(=O)O)C(=O)O)C(=O)O)NC(=O)[C@H](CO)NC(=O)[C@H](CC(=O)O)NC(=O)[C@H](CC(C)C)NC(=O)[C@](C)(Cc1ccccc1)NC(=O)[C@H](CCCCN)NC(=O)[C@H](CO)NC(=O)[C@@H](NC(=O)[C@H](CC(=O)O)NC(=O)[C@H](CO)NC(=O)[C@@H](NC(=O)[C@H](Cc1ccccc1)NC(=O)[C@@H](NC(=O)CNC(=O)[C@H](CCC(N)=O)NC(=O)C(C)(C)NC(=O)[C@@H](N)Cc1c[nH]cn1)[C@@H](C)O)[C@@H](C)O)C(C)C)C(C)C)C(=O)N[C@@H](CC(C)C)C(=O)N[C@@H](CCC(=O)O)C(=O)NC(C)(C)C(=O)NCC(=O)O

Starred links: 1 amine or outer side, 2 acyl side, 3 side chain; linkers in the order of their positions; H or OH if unused. Non-standard residues stand in square brackets, D forms with d. Groups on a side chain read outwards from the residue. No end group written: not given here. *: point of attachment. C20 diacid = O=C(O)CCCCCCCCCCCCCCCCCCC(=O)*; C18 diacid = O=C(O)CCCCCCCCCCCCCCCCC(=O)*; γGlu = O=C(O)[C@H](CCC(=O)[*:2])N[*:1]; αMeF = C[C@](N)(Cc1ccccc1)C(=O)O; AEEA = NCCOCCOCC(=O)O; Aib = CC(C)(N)C(=O)O

One assay deals with human GLP-1 receptor (human, UniProt P43220). Kind of assay: cell-based or functional assay.
For the molecule B1, the “cAMP production EC50” value came out at 0.143 nM.
For the molecule B2, the “cAMP production EC50” value turned out to be 0.0594 nM.
In the case of B3, the “cAMP production EC50” value amounted to 0.146 nM.
On to B4, for which the “cAMP production EC50” value was found to be 0.0452 nM.
On the same count and under the same terms, the same measure for B5: 0.0191 nM; for H[Aib]QGTFTSDVSK[αMeF]LDSK([γGlu-γGlu-AEEA-AEEA-γGlu-γGlu-C20 diacid])RAQDFVRWLLE[Aib]G-OH [Peptide 139]: 0.63 nM; for B6: 0.264 nM.
Same read-out and setting: the same measure for B7: 0.104 nM.

Another assay deals with human glucagon receptor (human, UniProt P47871). Briefly: cell-based or functional assay.
On to B1, for which the “cAMP production EC50” value was found to be 0.268 nM.
Take B2: the “cAMP production EC50” value was determined as 0.108 nM.
As for B3, the “cAMP production EC50” value was determined as 0.738 nM.
Consider B4, for which the “cAMP production EC50” value was 0.509 nM.
Turning to B5, the “cAMP production EC50” value came to 0.0326 nM.
On the same count and under the same terms, under H[Aib]QGTFTSDVSK[αMeF]LDSK([γGlu-γGlu-AEEA-AEEA-γGlu-γGlu-C20 diacid])RAQDFVRWLLE[Aib]G-OH [Peptide 139] stands 0.984 nM; under B6, 0.392 nM.
With B7, the “cAMP production EC50” value was found to be 0.184 nM.
